# Reference: PMC12534507
# Experiments:
# [1] = target: truncated human Derlin-1 (Derlin-1^Δ215-239) (human) (UniProt Q9BUN8); assay: cryo-EM structure
# [2] = target: wild-type C-terminally Strep-tagged Derlin-1 (human) (UniProt Q9BUN8); assay: cross-linking
Substance,stoichiometry N [1],stoichiometry N [2]
truncated human Derlin-1 (Derlin-1^Δ215-239) (from UniProt Q9BUN8) (natural protein),6,–
wild-type C-terminally Strep-tagged Derlin-1 (from UniProt Q9BUN8 1-251) (natural protein),–,2
